# Laboratory results reported in patent US20210388087A1.
# Changes are numbered by the printed parent chain. Numbers in names are those of the source.
# B1: H183/L072 VL F96L (antibody, name in Kabat numbering, V domains shown)
# VH: QVQLVESGGGLVQPGRSLRLSCAASGFTFSNAWMHWVRQAPGKGLEWVAQIKDKGNAYAAYYAPSVKGRFTISRDDSKNSIYLQMNSLKTEDTAVYYCHYVHYASASTVLPAFGVDAWGQGTTVTVSS
# VL: DIVMTQSPLSLPVTPGEPASISCQASQELVHMNRNTYLHWYQQKPGQAPRLLIYKVSNRFPGVPDRFSGSGSGTDFTLKISRVEAEDVGVYYCAQGTSVPLTFGQGTKLEIK
# B2: H183/L072 VL F96M (antibody, name in Kabat numbering, V domains shown)
# VH: B1 VH
# VL: B1 VL with L101M
# B3: H183/L072 VL T92P (antibody, name in Kabat numbering, V domains shown)
# VH: B1 VH
# VL: B1 VL with T97P, L101F
# B4: H183/L072 VL F96V (antibody, name in Kabat numbering, V domains shown)
# VH: B1 VH
# VL: B1 VL with L101V
# B5: H183/L072 VL G91V (antibody, name in Kabat numbering, V domains shown)
# VH: B1 VH
# VL: B1 VL with G96V, L101F
# B6: H183/L072 VL A89P (antibody, name in Kabat numbering, V domains shown)
# VH: B1 VH
# VL: B1 VL with A94P, L101F
# B7: H183/L072 VL F96P (antibody, name in Kabat numbering, V domains shown)
# VH: B1 VH
# VL: B1 VL with L101P
# B8: H183/L072 VL V51N (antibody, name in Kabat numbering, V domains shown)
# VH: B1 VH
# VL: B1 VL with V56N, L101F
# B9: H183/L072 VL T97P (antibody, name in Kabat numbering, V domains shown)
# VH: B1 VH
# VL: B1 VL with L101F, T102P
# B10: H183/L072 VL K50N (antibody, name in Kabat numbering, V domains shown)
# VH: B1 VH
# VL: B1 VL with K55N, L101F
# B11: H183/L072 VL Q90N (antibody, name in Kabat numbering, V domains shown)
# VH: B1 VH
# VL: B1 VL with Q95N, L101F
# B12: H183/L072 VL S93P (antibody, name in Kabat numbering, V domains shown)
# VH: B1 VH
# VL: B1 VL with S98P, L101F
# B13: H183/L072 VL G91P (antibody, name in Kabat numbering, V domains shown)
# VH: B1 VH
# VL: B1 VL with G96P, L101F
# B14: H183/L072 VL K50V (antibody, name in Kabat numbering, V domains shown)
# VH: B1 VH
# VL: B1 VL with K55V, L101F
# B15: H183/L072 VL G91M (antibody, name in Kabat numbering, V domains shown)
# VH: B1 VH
# VL: B1 VL with G96M, L101F
# B16: H183/L072 VL P95V (antibody, name in Kabat numbering, V domains shown)
# VH: B1 VH
# VL: B1 VL with P100V, L101F
# B17: H183/L072 VL P95G (antibody, name in Kabat numbering, V domains shown)
# VH: B1 VH
# VL: B1 VL with P100G, L101F
# B18: H183/L072 VL V51P (antibody, name in Kabat numbering, V domains shown)
# VH: B1 VH
# VL: B1 VL with V56P, L101F
# B19: H183/L072 VL A89N (antibody, name in Kabat numbering, V domains shown)
# VH: B1 VH
# VL: B1 VL with A94N, L101F
# B20: H183/L072 VL K50P (antibody, name in Kabat numbering, V domains shown)
# VH: B1 VH
# VL: B1 VL with K55P, L101F
# B21: H183/L072 VL V94G (antibody, name in Kabat numbering, V domains shown)
# VH: B1 VH
# VL: B1 VL with V99G, L101F
# B22: H183/L072 VL G91N (antibody, name in Kabat numbering, V domains shown)
# VH: B1 VH
# VL: B1 VL with G96N, L101F
# B23: H183/L072 VL F96G (antibody, name in Kabat numbering, V domains shown)
# VH: B1 VH
# VL: B1 VL with L101G
# B24: H183/L072 VL K50M (antibody, name in Kabat numbering, V domains shown)
# VH: B1 VH
# VL: B1 VL with K55M, L101F
# B25: H183/L072 VL S52P (antibody, name in Kabat numbering, V domains shown)
# VH: B1 VH
# VL: B1 VL with S57P, L101F
# B26: H183/L072 VL K50G (antibody, name in Kabat numbering, V domains shown)
# VH: B1 VH
# VL: B1 VL with K55G, L101F
# B27: H183/L072 VL Q90M (antibody, name in Kabat numbering, V domains shown)
# VH: B1 VH
# VL: B1 VL with Q95M, L101F
# B28: H183/L072 VL Q90G (antibody, name in Kabat numbering, V domains shown)
# VH: B1 VH
# VL: B1 VL with Q95G, L101F
# B29: H183/L072 VL P95N (antibody, name in Kabat numbering, V domains shown)
# VH: B1 VH
# VL: B1 VL with P100N, L101F
# B30: H183/L072 VL P95M (antibody, name in Kabat numbering, V domains shown)
# VH: B1 VH
# VL: B1 VL with P100M, L101F
# B31: H183/L072 VL F96N (antibody, name in Kabat numbering, V domains shown)
# VH: B1 VH
# VL: B1 VL with L101N
# B32: H183/L072 VL Q90V (antibody, name in Kabat numbering, V domains shown)
# VH: B1 VH
# VL: B1 VL with Q95V, L101F
# B33: H183/L072 VL Q90P (antibody, name in Kabat numbering, V domains shown)
# VH: B1 VH
# VL: B1 VL with Q95P, L101F
# Target: Human CD3eg linker (human)
# Experiment: SPR; fold vs parent H183/L072
# Sequence of Human CD3eg linker (human) (chain, as listed by the source limits assumed): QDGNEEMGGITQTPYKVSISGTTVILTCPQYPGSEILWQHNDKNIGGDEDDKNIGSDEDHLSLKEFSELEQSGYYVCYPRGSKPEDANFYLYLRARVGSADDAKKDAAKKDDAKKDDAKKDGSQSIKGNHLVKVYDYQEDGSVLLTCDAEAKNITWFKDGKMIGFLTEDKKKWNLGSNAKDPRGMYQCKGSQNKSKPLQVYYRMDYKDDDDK
row,Binder,fold change of affinity [fold]
1,B1,0
2,B2,0
3,B3,0
4,B4,0
5,B5,0
6,B6,0
7,B7,0
8,B8,0
9,B9,0
10,B10,0
11,B11,0
12,B12,0
13,B13,0
14,B14,0
15,B15,0
16,B16,0
17,B17,0

row,Binder,fold change of affinity [fold]
1,B18,0
2,B19,0
3,B20,0
4,B21,0
5,B22,0
6,B23,0
7,B24,0
8,B25,0
9,B26,0
10,B27,0
11,B28,0
12,B29,0
13,B30,0
14,B31,0
15,B32,0
16,B33,0
